From the nanobody polyreactivity screen of Harvey et al. (2022)

Assay: yeast display, Sf9 membrane polyspecificity reagent, FACS + sequencing; frameworks hold sequencing errors
Procedure, shortened: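 Synthetic nanobody libraries on Saccharomyces cerevisiae BJ5465 were galactose-induced for 36–48 hours, stained 1 hour at 4 °C with 10% biotinylated, detergent-solubilized Sf9 membrane reagent and enriched on streptavidin microbeads. FACS then separated cells into low and high (top ~1%) gates by anti-HA (expression) and streptavidin (reagent binding) fluorescence. Genes were colony-PCR amplified, MiSeq 2 × 250 sequenced and CDR-length filtered. A clone's polyreactivity label is that of its gate of origin.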

| Sequence | polyreactivity (PSR sort gate) |
| --- | --- |
| QVQLVESGGGLVQAGGSLRLNCAASGSIFTGNAMGWYRQAPGKERELVASITTSTDSTYYADSVKGRFTISRDNAKNTVYLQMNRLKTEDTAVYYCAAEYAVAWKYGLYFYFHFDYWGQGTQVTVSS | low polyreactivity |
| QVQLVESGGGLVQAGGSLRLRCAASGFIFQINAMGWYRQAPGKEREFVAAISRSVGSTSYADSVKGRFTISRDNAKNTVYLQMNSLKPEDTAVYYCNAAQRKRKGPYDYWGQGTQVTVSS | high polyreactivity |
| QVQLVESGGGLVQAGGSLRLRCAASGFIYIRNAMGWYRQAPGKERELVAAITRSGGRTYYADSVKGRFTISRDNAKNTVYLQMNSLIPEDTAVYYCASDAEAAWGQGTQVTVSS | high polyreactivity |
| QVQLVESGGGLVQAGGSLRLRCAASGFTFQNYVMGWYRQAPGKESELVAAINSGGRTYYADSVKGRFTISRDYANNTVYLQMNSLKPEDTAVYFCKDRRGHYWGQGTQVTVSS | high polyreactivity |
| QVQLVESGGGLVQAGGSLRLRCAASGFTFYWYAMGWYRQAPGKEREIVAAIDQSGGSTYYADSVKGRFTISRDNAKNSVYLQMNSLKQEDTAVYYCAARYILWDGDSWTEFDYWGQGTQVTVSS | low polyreactivity |
| QVQLVESGGGLVQAGGSLRLRCAASGIIFTDYAMGWYRQAPGKERELVAAISSGGGSTYYAHSVKGRFTISRDNAKNTVYFLMNSLKPDVTAVYYCAAEGYLISGAGDYLYDYYWGQGTQVTVSS | high polyreactivity |
| QVQLVESGGGLVQAGGSLRLRCAASGIIFYGNAMGWYRPAPGQERELVAAISRRSGSTYYADSVKGRFTISRDTAKNTVYLQMNSLKPEDTAVYYGNKRAANAVTINDMDYWGQGTQVTVSS | high polyreactivity |
| QVQLVESGGGLVQAGGSLRLRCAASGIIFYRNVMGWYRQAPGKERELVAAISGRGGSTYYADSVKGRFTISRDNAKNTVYLQMNILKPEETAVYYCATDTRTWRFTRGAWYTYGSDYWGQGTQVTVSS | high polyreactivity |
| QVQLVESGGGLVQAGGSLRLRCAASGLIFIFNAMGWYRQAPGKERELVAAIDTSDDSTYYADSVKGRFTISRDNAKNTVYLQMNSMKPEDTAVYYCAAEELSNYEYWGQGTQVTVSS | low polyreactivity |
| QVQLVESGGGLVQAGGSLRLRCAASGLTFRKYPMGWYRPAPGKERELVATISRNGGSTYSADSVKGRFTISSDNAKITVYLQMNSLKPEDTAVYYCAADYYTYDYAGYGYWGQGTQVTVSS | high polyreactivity |
| QVQLVESGGGLVQAGGSLRLRCAASGLTYSNAMGWYRQAPGKERELVAAISWRGGRTYYADSVKGRFTISRDNAKNTVYLQMNSLKPEDTAVYYCAKYAHGHKWYGYWGQGTQVTVSS | low polyreactivity |
| QVQLVESGGGLVQAGGSLRLRCAASGRIFGYNDMGWYRQAPGKERELVAAINWTGGSTYYADSVKARFTISRDNSKNTVYLQMNSLKPEDTAVYYCNADARTKWVQTHTDFISDYDYWGQGTQVTVSS | low polyreactivity |
| QVQLVESGGGLVQAGGSLRLRCAASGRIFNNYAMGWYRPAPGKERELVAAISGSGGSTYYADSVKGRFTISRDNAKNNVYLQMNSLKPEDTAVYYCSTSGPHYFSRNFDYWGQGTQVTVSS | low polyreactivity |
| QVQLVESGGGLVQAGGSLRLRCAASGRIFVENAMGWYRQAPGKERELVATISSGDSTNYADSVKGRFTISRDNAKNTVYLQMNSLKPEDTAVYYCDAADGIIESDYWGQGTQVTVSS | low polyreactivity |
| QVQLVESGGGLVQAGGSLRLRCAASGRILWWYAMGWYRQAPGKERELVATITYSGGSTYADSVKGRFTISRDNAKNTVYLQMNSLKPEDTAVYYCAARLPLYYGKSDYWGQGTQVTVSS | high polyreactivity |
| QVQLVESGGGLVQAGGSLRLRCAASGRTFKPYVMGWNRQAPGKERELVAAISSRGGSTYYADSVKGRFTISRDNAKNTFYLQMNSLKPEDTAVYYCNAAYWFSNKYGYWGQGTQVTVAS | high polyreactivity |
| QVQLVESGGGLVQAGGSLRLRCAASGRTFRYYAMGWYRQAPGKERELVAVINYRGGSTYYADSVKGRFTISRDNEKNTVYLQMNSLKPEDTAVYYCAAQYIGWHLYWYDYWGQGTQVTVSS | low polyreactivity |
| QVQLVESGGGLVQAGGSLRLRCAASGRTFTYNAMVWYRQAPGKERELVPANNFSGVSTYYADSVKGRFTISRDNAKNTVYLQMNILKPEVTAVYYCAARGSARKSFPYPLEYWGQGTQVTVSS | high polyreactivity |
| QVQLVESGGGLVQAGGSLRLRCAASGSIFTDYAMGGYRQAPGKERELVAVIDIDGSTYYADSVKGRFTISRDNAKNTVYLQMNSLKPEDTAVYDCAAGYTYYSLYGYWGQGTQVTGSS | low polyreactivity |
| QVQLVESGGGLVQAGGSLRLRCAASGSIFTWYAMGWYRQAPAKERELVAAITRGGSTSADSVKGRFTISRDNAKNTVYLQMNSLKPEYTAVYYCNAVYGVYDFNYWGQGTQVTVSS | low polyreactivity |
| QVQLVESGGGLVQAGGSLRLRCAASGSIFVYNARGWYRPAPGKERELVPAISKSGGRTYYADSVKGRFTISRDNAKNTVYCQMHSLKPEDTAVYYCNALAGQRQGWEYDYWGQGTQVTVSS | high polyreactivity |

| Sequence | polyreactivity (PSR sort gate) |
| --- | --- |
| QVQLVESGGGLVQAGGSLRLRCAASGSIFYLYAMGWFRRAPGKERELVAASSRSGASTYYADSVKGRFTISRDNAKNTVYLQMNSLKPEDTAVYYGAADYNSQLARIYDYWGQGTQVTVSS | low polyreactivity |
| QVQLVESGGGLVQAGGSLRLRCAASGSILYSYTMGWYRQAPGKERELVAALIRGGRTNYADSVKGRFTISRDNAKNTVYLQMNSLKPEDTAVYYCNTGSYAWSWRRAMDYWGQGTQVTVSS | high polyreactivity |
| QVQLVESGGGLVQAGGSLRLRCAASGSIMGRYAMGWYRQAPGKERELVAAITSSGTRTYYPDSVKGRFTISRDNANNTVYLQMNSLKPEDTAVYYCAAYLAITRSYYIVPYDYWGQGTQVTVSS | high polyreactivity |
| QVQLVESGGGLVQAGGSLRLRCAASGSNFYQNAMGGYRQAPGKETALLATIDVNTVSTSYADSVKGRFTISRDNAKNTVYLQMHSLKPEDTAVYYCAAGPDVGVLGDRDPWKNVKYDYWGQGTQVTASS | low polyreactivity |
| QVQLVESGGGLVQAGGSLRLRCAASGSTCFLYAMGWYRQAPGKEMELVASISDGSSTNYADSVKGRFTISRDNAKNTVYLQMNSLKPEDTAVYYCDAARWYAHRVDYWGQGTQVTVSS | low polyreactivity |
| QVQLVESGGGLVQAGGSLRLRCAASGSTFAYYAMGWYRQAPGKDRELVARIRSSGVSTYYADSVKGRFTISRDNPNNTVSLQMNTLKPEDTAGYYCHTAYAGVRYDSWGQGTQVTVSS | low polyreactivity |
| QVQLVESGGGLVQAGGSLRLRCAASGSTFGPYVMGWYRQAPGKVRELVAVISGGSTDYADSVKGRFTISRDNAKNNVYLQINSLKPEDTAVYYCNAEYYFYLSPTVYLYDYWGQGTQVTVSS | high polyreactivity |
| QVQLVESGGGLVQAGGSLRLRCAASGSTFSRYAMGWYRQAAGKERELVAAISWSGGSTYYADSVKGRFTISRDNAKNTVYLQMNSLKPEYTAVYYCAAYTYSFRANHDFWGQGTQVTVSS | high polyreactivity |
| QVQLVESGGGLVQAGGSLRLRCAASGSTFWSYAMGWYRQAPGKERELVATITRAGTTNYADSVKGPFTISRDNAKNTVYLQMNSLKPEDTAVYYCAKRKFRWPYQGSYSYIPFGYWGQGTQVTVSS | high polyreactivity |
| QVQLVESGGGLVQAGGSLRLRCAASGSTFYWNAMGWYRQAPGKERELVATITYSGGSTYYADSVKGRFTISRDNAKNTVYLQMNSLKPEDTAVYYCATGGLTWHYTYRGYYWGQGTQVTVSS | low polyreactivity |
| QVQLVESGGGLVQAGGSLRLRCAASGTTTSNNSMGWYRQAPGKERELVADMSTNGDSTSYADSVKGRYTISRDNAKNTVYLQMNSLKPVDTAVYYCAASTYVTYWEYDYWGQGTQVTVSS | low polyreactivity |
| QVQLVESGGGLVQAGGSLRLRCAASGWYRQAAGKERELVAAITYSGGSTYYADSVKGRFTISRDNAKKTVYLQMNSLKPEDTAVYYCAAQPRVDYEFPYRYGYWGLGTQVTVSS | low polyreactivity |
| QVQLVESGGGLVQAGGSLRLRCAPSGFIFNTMGWYRQAPGKERDLVATISWSDGSTYYADSVKGRFTISRDNAKNTVYLHMNSLKTEDTADYYCAATTDALVGRPRYDYWGQGTQVTVSS | low polyreactivity |
| QVQLVESGGGLVQAGGSLRLRGAASGSIFKGNAMGWYRQAPGKERELVAAITRSVARTYYADSVKVRFTISRDNAKNTVYLQMNSLKPEDTAVYDCAADWYQWGGRYYAPRYYYWGQGTQVTVSS | high polyreactivity |
| QVQLVESGGGLVQAGGSLRLRSAASGSIYNQNAMGWYRQAHGNRELVAAITNGVSTDYADSVKGRFTISRDNAKNTVYLKLNSLKPEDTAVYYCNAGNYQYPSFEYDYWGLGTQVTVSS | low polyreactivity |
| QVQLVESGGGLVQAGGSLRLRWAASGFIFGYYPMGWYRPAPGKERELVAAINSSGGSTYYADSVKGRFTISRDNAKNTVYLQMNSLKPADTAVYYCAARAYQRGIYWGQGTQVTLSS | high polyreactivity |
| QVQLVESGGGLVQAGGSLRLSCAAAGFTFYIYAMGWYRKAPGKERELVAAITTTTGSTYYADSVKGRFTISRDNAKNTVYLQMNSLKPEDTAVYYCAAEGHYYYFGYYYWGQGTQVTVSS | low polyreactivity |
| QVQLVESGGGLVQAGGSLRLSCAAAGSIFSGYAMGWSRQAPGKERELVAAISGSGGSTFYADSVKGRFTISRDNAKKTVYLQMNSLKPEDTAVYYCAARRIAPYARYDYWGQGTQVTVSS | low polyreactivity |
| QVQLVESGGGLVQAGGSLRLSCAAAGSTFHANAMGWYRPAPGKERELVAAISRSGGSTNYADSVKGRFTISRDIAKNTVYLQMNSLKPEDTAVYYCAVDYRYYQVYYWGQGTQVTVSS | high polyreactivity |
| QVQLVESGGGLVQAGGSLRLSCAACGRISTAYAMGGYRQAPGTERELVAAISSGTSTTYADSVKGRFTISRDNAKNTVYLQMNSLKPEDTAVYYCAAPGRYGEYDYWGQGTQVTVSS | low polyreactivity |
